Columns and labels:
[1] = target: T1, mCherry-tagged CDK5 (cyclin-dependent kinase 5) (UniProt Q00535 1-292); test: co-IP; N1E-115 cells co-transfected with mCherry-tagged CDK5 and HA-tagged 5-HT7R constructs; IP with anti-mCherry antibody, Western blot with anti-HA antibody; ratio of co-precipitated receptor normalized to the WT sample; also done after knock-down of Gαs by shRNA (Additional file 5); conditions: partners not purified
T1 construct: Cyclin-dependent kinase 5 (CDK5); Printed both as CDK5-mCherry and as mCherry-CDK5; also called CDK5-mCherry; mCherry-CDK5; source: N1E-115 cells, transfected, in lysate

[2] = target: T1, mCherry-tagged CDK5 (cyclin-dependent …); test: cell-based or functional assay

B1: HA-tagged 5-HT7R (serotonin receptor 7), wild type (receptor, UniProt P32304 1-448, looked up)
chain: MMDVNSSGRPDLYGHLRSLILPEVGRRLQDLSPDGGAHSVVSSWMPHLLSGFPEVTASPAPTWDAPPDNVSGCGEQINYGRVEKVVIGSILTLITLLTIAGNCLVVISVCFVKKLRQPSNYLIVSLALADLSVAVAVMPFVSVTDLIGGKWIFGHFFCNVFIAMDVMCCTASIMTLCVISIDRYLGITRPLTYPVRQNGKCMAKMILSVWLLSASITLPPLFGWAQNVNDDKVCLISQDFGYTIYSTAVAFYIPMSVMLFMYYQIYKAARKSAAKHKFSGFPRVQPESVISLNGVVKLQKEVEECANLSRLLKHERKNISIFKREQKAATTLGIIVGAFTVCWLPFFLLSTARPFICGTSCSCIPLWVERTCLWLGYANSLINPFIYAFFNRDLRTTYRSLLQCQYRNINRKLSAAGMHEALKLAERPERSEFVLQNCDHCGKKGHDT
notes: Serotonin receptor 7 (5-HT7R), wild type; pcDNA3.1(+) vector; also called 5-HT7R WT; WT; source: N1E-115 cells, transfected, in lysate; not shown: HA, N-terminal, kept
For B1, the “co-precipitated receptor, normalized to WT” value [1] was 100%.

B2: HA-tagged 5-HT7R F281A (receptor, UniProt P32304 1-448, looked up)
chain: MMDVNSSGRPDLYGHLRSLILPEVGRRLQDLSPDGGAHSVVSSWMPHLLSGFPEVTASPAPTWDAPPDNVSGCGEQINYGRVEKVVIGSILTLITLLTIAGNCLVVISVCFVKKLRQPSNYLIVSLALADLSVAVAVMPFVSVTDLIGGKWIFGHFFCNVFIAMDVMCCTASIMTLCVISIDRYLGITRPLTYPVRQNGKCMAKMILSVWLLSASITLPPLFGWAQNVNDDKVCLISQDFGYTIYSTAVAFYIPMSVMLFMYYQIYKAARKSAAKHKFSGAPRVQPESVISLNGVVKLQKEVEECANLSRLLKHERKNISIFKREQKAATTLGIIVGAFTVCWLPFFLLSTARPFICGTSCSCIPLWVERTCLWLGYANSLINPFIYAFFNRDLRTTYRSLLQCQYRNINRKLSAAGMHEALKLAERPERSEFVLQNCDHCGKKGHDT
notes: Serotonin receptor 7 (5-HT7R) with F281A in intracellular loop 3; Primers are in Additional file 1; source: N1E-115 cells, transfected, in lysate; not shown: HA, N-terminal, kept
B2 was tested, and the “phosphorylation of endogenous CDK5 at S159 (read-out for CDK5 activation) in N1E-115 cells expressing the HA-tagged receptor, % of WT” value [2] was 45.7% and the “co-precipitated receptor, normalized to WT” value [1] was 73.8%.

B3: HA-tagged 5-HT7R F278A;F281A (receptor, UniProt P32304 1-448, looked up)
chain: MMDVNSSGRPDLYGHLRSLILPEVGRRLQDLSPDGGAHSVVSSWMPHLLSGFPEVTASPAPTWDAPPDNVSGCGEQINYGRVEKVVIGSILTLITLLTIAGNCLVVISVCFVKKLRQPSNYLIVSLALADLSVAVAVMPFVSVTDLIGGKWIFGHFFCNVFIAMDVMCCTASIMTLCVISIDRYLGITRPLTYPVRQNGKCMAKMILSVWLLSASITLPPLFGWAQNVNDDKVCLISQDFGYTIYSTAVAFYIPMSVMLFMYYQIYKAARKSAAKHKASGAPRVQPESVISLNGVVKLQKEVEECANLSRLLKHERKNISIFKREQKAATTLGIIVGAFTVCWLPFFLLSTARPFICGTSCSCIPLWVERTCLWLGYANSLINPFIYAFFNRDLRTTYRSLLQCQYRNINRKLSAAGMHEALKLAERPERSEFVLQNCDHCGKKGHDT
notes: Serotonin receptor 7 (5-HT7R) with F278A and F281A in intracellular loop 3; Primers are in Additional file 1; also called F278;F281A; source: N1E-115 cells, transfected, in lysate; not shown: HA, N-terminal, kept
For B3, the “phosphorylation of endogenous CDK5 at S159 (read-out for CDK5 activation) in N1E-115 cells expressing the HA-tagged receptor, % of WT” value [2] was 49.2% and the “co-precipitated receptor, normalized to WT” value [1] was 64.5%.

From article PMC11031989, “Structural determinants for activation of the Tau kinase CDK5 by the serotonin receptor 5-HT7R” (Cell Communication and Signaling : CCS, 2024)
